Results published in patent US20210388087A1 (Chugai, published 2021).

B1: CE115HA000/GLS3000 L27bV (antibody, IgG1, name in Kabat numbering, V domains shown)
VH: QVQLVESGGGVVQPGRSLRLSCAASGFTFSNAWMHWVRQAPGKGLEWVAQIKAKSNNYATYYAESVKGRFTISRDDSKNSLYLQMNSLKTEDTAVYYCRYVHYGAYYGVDAWGQGTTVTVSS
VL: DIVMTQSPLSLPVTPGEPASISCRSSQSVVHSNRNTYLHWYQQKPGQAPRLLIYKVSNRFSGVPDRFSGSGSGTDFTLKISRVEAEDVGVYYCGQGTQVPYTFGQGTKLEIK
notes: one-arm IgG1
B2: CE115HA000/GLS3000 N28L (antibody, IgG1, name in Kabat numbering, V domains shown)
VH: QVQLVESGGGVVQPGRSLRLSCAASGFTFSNAWMHWVRQAPGKGLEWVAQIKAKSNNYATYYAESVKGRFTISRDDSKNSLYLQMNSLKTEDTAVYYCRYVHYGAYYGVDAWGQGTTVTVSS
VL: DIVMTQSPLSLPVTPGEPASISCRSSQSLVHSLRNTYLHWYQQKPGQAPRLLIYKVSNRFSGVPDRFSGSGSGTDFTLKISRVEAEDVGVYYCGQGTQVPYTFGQGTKLEIK
notes: one-arm IgG1
B3: CE115HA000/GLS3000 N28I (antibody, IgG1, name in Kabat numbering, V domains shown)
VH: QVQLVESGGGVVQPGRSLRLSCAASGFTFSNAWMHWVRQAPGKGLEWVAQIKAKSNNYATYYAESVKGRFTISRDDSKNSLYLQMNSLKTEDTAVYYCRYVHYGAYYGVDAWGQGTTVTVSS
VL: DIVMTQSPLSLPVTPGEPASISCRSSQSLVHSIRNTYLHWYQQKPGQAPRLLIYKVSNRFSGVPDRFSGSGSGTDFTLKISRVEAEDVGVYYCGQGTQVPYTFGQGTKLEIK
notes: one-arm IgG1
B4: CE115HA000/GLS3000 L27bW (antibody, IgG1, name in Kabat numbering, V domains shown)
VH: QVQLVESGGGVVQPGRSLRLSCAASGFTFSNAWMHWVRQAPGKGLEWVAQIKAKSNNYATYYAESVKGRFTISRDDSKNSLYLQMNSLKTEDTAVYYCRYVHYGAYYGVDAWGQGTTVTVSS
VL: DIVMTQSPLSLPVTPGEPASISCRSSQSWVHSNRNTYLHWYQQKPGQAPRLLIYKVSNRFSGVPDRFSGSGSGTDFTLKISRVEAEDVGVYYCGQGTQVPYTFGQGTKLEIK
notes: one-arm IgG1
B5: CE115HA000/GLS3000 N28P (antibody, IgG1, name in Kabat numbering, V domains shown)
VH: QVQLVESGGGVVQPGRSLRLSCAASGFTFSNAWMHWVRQAPGKGLEWVAQIKAKSNNYATYYAESVKGRFTISRDDSKNSLYLQMNSLKTEDTAVYYCRYVHYGAYYGVDAWGQGTTVTVSS
VL: DIVMTQSPLSLPVTPGEPASISCRSSQSLVHSPRNTYLHWYQQKPGQAPRLLIYKVSNRFSGVPDRFSGSGSGTDFTLKISRVEAEDVGVYYCGQGTQVPYTFGQGTKLEIK
notes: one-arm IgG1
B6: CE115HA000/GLS3000 L33M (antibody, IgG1, name in Kabat numbering, V domains shown)
VH: QVQLVESGGGVVQPGRSLRLSCAASGFTFSNAWMHWVRQAPGKGLEWVAQIKAKSNNYATYYAESVKGRFTISRDDSKNSLYLQMNSLKTEDTAVYYCRYVHYGAYYGVDAWGQGTTVTVSS
VL: DIVMTQSPLSLPVTPGEPASISCRSSQSLVHSNRNTYMHWYQQKPGQAPRLLIYKVSNRFSGVPDRFSGSGSGTDFTLKISRVEAEDVGVYYCGQGTQVPYTFGQGTKLEIK
notes: one-arm IgG1
B7: CE115HA000/GLS3000 L33A (antibody, IgG1, name in Kabat numbering, V domains shown)
VH: QVQLVESGGGVVQPGRSLRLSCAASGFTFSNAWMHWVRQAPGKGLEWVAQIKAKSNNYATYYAESVKGRFTISRDDSKNSLYLQMNSLKTEDTAVYYCRYVHYGAYYGVDAWGQGTTVTVSS
VL: DIVMTQSPLSLPVTPGEPASISCRSSQSLVHSNRNTYAHWYQQKPGQAPRLLIYKVSNRFSGVPDRFSGSGSGTDFTLKISRVEAEDVGVYYCGQGTQVPYTFGQGTKLEIK
notes: one-arm IgG1
B8: CE115HA000/GLS3000 N28A (antibody, IgG1, name in Kabat numbering, V domains shown)
VH: QVQLVESGGGVVQPGRSLRLSCAASGFTFSNAWMHWVRQAPGKGLEWVAQIKAKSNNYATYYAESVKGRFTISRDDSKNSLYLQMNSLKTEDTAVYYCRYVHYGAYYGVDAWGQGTTVTVSS
VL: DIVMTQSPLSLPVTPGEPASISCRSSQSLVHSARNTYLHWYQQKPGQAPRLLIYKVSNRFSGVPDRFSGSGSGTDFTLKISRVEAEDVGVYYCGQGTQVPYTFGQGTKLEIK
notes: one-arm IgG1
B9: CE115HA000/GLS3000 N28K (antibody, IgG1, name in Kabat numbering, V domains shown)
VH: QVQLVESGGGVVQPGRSLRLSCAASGFTFSNAWMHWVRQAPGKGLEWVAQIKAKSNNYATYYAESVKGRFTISRDDSKNSLYLQMNSLKTEDTAVYYCRYVHYGAYYGVDAWGQGTTVTVSS
VL: DIVMTQSPLSLPVTPGEPASISCRSSQSLVHSKRNTYLHWYQQKPGQAPRLLIYKVSNRFSGVPDRFSGSGSGTDFTLKISRVEAEDVGVYYCGQGTQVPYTFGQGTKLEIK
notes: one-arm IgG1
B10: CE115HA000/GLS3000 L33D (antibody, IgG1, name in Kabat numbering, V domains shown)
VH: QVQLVESGGGVVQPGRSLRLSCAASGFTFSNAWMHWVRQAPGKGLEWVAQIKAKSNNYATYYAESVKGRFTISRDDSKNSLYLQMNSLKTEDTAVYYCRYVHYGAYYGVDAWGQGTTVTVSS
VL: DIVMTQSPLSLPVTPGEPASISCRSSQSLVHSNRNTYDHWYQQKPGQAPRLLIYKVSNRFSGVPDRFSGSGSGTDFTLKISRVEAEDVGVYYCGQGTQVPYTFGQGTKLEIK
notes: one-arm IgG1
B11: CE115HA000/GLS3000 N28M (antibody, IgG1, name in Kabat numbering, V domains shown)
VH: QVQLVESGGGVVQPGRSLRLSCAASGFTFSNAWMHWVRQAPGKGLEWVAQIKAKSNNYATYYAESVKGRFTISRDDSKNSLYLQMNSLKTEDTAVYYCRYVHYGAYYGVDAWGQGTTVTVSS
VL: DIVMTQSPLSLPVTPGEPASISCRSSQSLVHSMRNTYLHWYQQKPGQAPRLLIYKVSNRFSGVPDRFSGSGSGTDFTLKISRVEAEDVGVYYCGQGTQVPYTFGQGTKLEIK
notes: one-arm IgG1
B12: CE115HA000/GLS3000 L33P (antibody, IgG1, name in Kabat numbering, V domains shown)
VH: QVQLVESGGGVVQPGRSLRLSCAASGFTFSNAWMHWVRQAPGKGLEWVAQIKAKSNNYATYYAESVKGRFTISRDDSKNSLYLQMNSLKTEDTAVYYCRYVHYGAYYGVDAWGQGTTVTVSS
VL: DIVMTQSPLSLPVTPGEPASISCRSSQSLVHSNRNTYPHWYQQKPGQAPRLLIYKVSNRFSGVPDRFSGSGSGTDFTLKISRVEAEDVGVYYCGQGTQVPYTFGQGTKLEIK
notes: one-arm IgG1
B13: CE115HA000/GLS3000 L33V (antibody, IgG1, name in Kabat numbering, V domains shown)
VH: QVQLVESGGGVVQPGRSLRLSCAASGFTFSNAWMHWVRQAPGKGLEWVAQIKAKSNNYATYYAESVKGRFTISRDDSKNSLYLQMNSLKTEDTAVYYCRYVHYGAYYGVDAWGQGTTVTVSS
VL: DIVMTQSPLSLPVTPGEPASISCRSSQSLVHSNRNTYVHWYQQKPGQAPRLLIYKVSNRFSGVPDRFSGSGSGTDFTLKISRVEAEDVGVYYCGQGTQVPYTFGQGTKLEIK
notes: one-arm IgG1
B14: CE115HA000/GLS3000 N28E (antibody, IgG1, name in Kabat numbering, V domains shown)
VH: QVQLVESGGGVVQPGRSLRLSCAASGFTFSNAWMHWVRQAPGKGLEWVAQIKAKSNNYATYYAESVKGRFTISRDDSKNSLYLQMNSLKTEDTAVYYCRYVHYGAYYGVDAWGQGTTVTVSS
VL: DIVMTQSPLSLPVTPGEPASISCRSSQSLVHSERNTYLHWYQQKPGQAPRLLIYKVSNRFSGVPDRFSGSGSGTDFTLKISRVEAEDVGVYYCGQGTQVPYTFGQGTKLEIK
notes: one-arm IgG1
B15: CE115HA000/GLS3000 N28G (antibody, IgG1, name in Kabat numbering, V domains shown)
VH: QVQLVESGGGVVQPGRSLRLSCAASGFTFSNAWMHWVRQAPGKGLEWVAQIKAKSNNYATYYAESVKGRFTISRDDSKNSLYLQMNSLKTEDTAVYYCRYVHYGAYYGVDAWGQGTTVTVSS
VL: DIVMTQSPLSLPVTPGEPASISCRSSQSLVHSGRNTYLHWYQQKPGQAPRLLIYKVSNRFSGVPDRFSGSGSGTDFTLKISRVEAEDVGVYYCGQGTQVPYTFGQGTKLEIK
notes: one-arm IgG1
B16: CE115HA000/GLS3000 N28F (antibody, IgG1, name in Kabat numbering, V domains shown)
VH: QVQLVESGGGVVQPGRSLRLSCAASGFTFSNAWMHWVRQAPGKGLEWVAQIKAKSNNYATYYAESVKGRFTISRDDSKNSLYLQMNSLKTEDTAVYYCRYVHYGAYYGVDAWGQGTTVTVSS
VL: DIVMTQSPLSLPVTPGEPASISCRSSQSLVHSFRNTYLHWYQQKPGQAPRLLIYKVSNRFSGVPDRFSGSGSGTDFTLKISRVEAEDVGVYYCGQGTQVPYTFGQGTKLEIK
notes: one-arm IgG1
B17: CE115HA000/GLS3000 L33I (antibody, IgG1, name in Kabat numbering, V domains shown)
VH: QVQLVESGGGVVQPGRSLRLSCAASGFTFSNAWMHWVRQAPGKGLEWVAQIKAKSNNYATYYAESVKGRFTISRDDSKNSLYLQMNSLKTEDTAVYYCRYVHYGAYYGVDAWGQGTTVTVSS
VL: DIVMTQSPLSLPVTPGEPASISCRSSQSLVHSNRNTYIHWYQQKPGQAPRLLIYKVSNRFSGVPDRFSGSGSGTDFTLKISRVEAEDVGVYYCGQGTQVPYTFGQGTKLEIK
notes: one-arm IgG1
B18: CE115HA000/GLS3000 L33F (antibody, IgG1, name in Kabat numbering, V domains shown)
VH: QVQLVESGGGVVQPGRSLRLSCAASGFTFSNAWMHWVRQAPGKGLEWVAQIKAKSNNYATYYAESVKGRFTISRDDSKNSLYLQMNSLKTEDTAVYYCRYVHYGAYYGVDAWGQGTTVTVSS
VL: DIVMTQSPLSLPVTPGEPASISCRSSQSLVHSNRNTYFHWYQQKPGQAPRLLIYKVSNRFSGVPDRFSGSGSGTDFTLKISRVEAEDVGVYYCGQGTQVPYTFGQGTKLEIK
notes: one-arm IgG1
B19: CE115HA000/GLS3000 L33E (antibody, IgG1, name in Kabat numbering, V domains shown)
VH: QVQLVESGGGVVQPGRSLRLSCAASGFTFSNAWMHWVRQAPGKGLEWVAQIKAKSNNYATYYAESVKGRFTISRDDSKNSLYLQMNSLKTEDTAVYYCRYVHYGAYYGVDAWGQGTTVTVSS
VL: DIVMTQSPLSLPVTPGEPASISCRSSQSLVHSNRNTYEHWYQQKPGQAPRLLIYKVSNRFSGVPDRFSGSGSGTDFTLKISRVEAEDVGVYYCGQGTQVPYTFGQGTKLEIK
notes: one-arm IgG1
B20: CE115HA000/GLS3000 L27bY (antibody, IgG1, name in Kabat numbering, V domains shown)
VH: QVQLVESGGGVVQPGRSLRLSCAASGFTFSNAWMHWVRQAPGKGLEWVAQIKAKSNNYATYYAESVKGRFTISRDDSKNSLYLQMNSLKTEDTAVYYCRYVHYGAYYGVDAWGQGTTVTVSS
VL: DIVMTQSPLSLPVTPGEPASISCRSSQSYVHSNRNTYLHWYQQKPGQAPRLLIYKVSNRFSGVPDRFSGSGSGTDFTLKISRVEAEDVGVYYCGQGTQVPYTFGQGTKLEIK
notes: one-arm IgG1
B21: CE115HA000/GLS3000 N28H (antibody, IgG1, name in Kabat numbering, V domains shown)
VH: QVQLVESGGGVVQPGRSLRLSCAASGFTFSNAWMHWVRQAPGKGLEWVAQIKAKSNNYATYYAESVKGRFTISRDDSKNSLYLQMNSLKTEDTAVYYCRYVHYGAYYGVDAWGQGTTVTVSS
VL: DIVMTQSPLSLPVTPGEPASISCRSSQSLVHSHRNTYLHWYQQKPGQAPRLLIYKVSNRFSGVPDRFSGSGSGTDFTLKISRVEAEDVGVYYCGQGTQVPYTFGQGTKLEIK
notes: one-arm IgG1

target: T1, CD3 epsilon homodimer protein (UniProt P07766 23-126); assay: SPR, antibody over immobilised CD3e homodimer;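 note: SPR at 25 °C with CD3 epsilon homodimer amine-coupled to a CM4 sensor chip and antibody flowed over as analyte in HBS-EP+ running buffer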
T1 construct: also called CD3 (CD3 epsilon)
T1 sequence (P07766 23-126): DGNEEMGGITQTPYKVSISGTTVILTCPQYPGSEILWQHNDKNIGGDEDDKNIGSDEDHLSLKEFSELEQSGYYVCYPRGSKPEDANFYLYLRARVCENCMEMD

Going from B1 to B2, the “KD ratio to GLS3000” value rises from 1.11 to 3.34.

First: B3
Second: B4
The “KD ratio to GLS3000” value of the first is lower: 2.81 for the first, 23.6 for the second.

Compared with B5, B6 is lower in “KD ratio to GLS3000” value: 4.18 for the first, 0.9 for the second.

First: B7
Second: B8
The “KD ratio to GLS3000” value of the first is lower: 0.82 for the first, 4.18 for the second.

Going from B9 to B10, the “KD ratio to GLS3000” value rises from 2.34 to 37.5.

Going from B11 to B12, the “KD ratio to GLS3000” value rises from 3.29 to 32.9.

Compared with B13, B14 is higher in “KD ratio to GLS3000” value: 1.26 for the first, 5.47 for the second.

Compared with B15, B16 is higher in “KD ratio to GLS3000” value: 2.41 for the first, 2.59 for the second.

Compared with B17, B18 is lower in “KD ratio to GLS3000” value: 0.86 for the first, 0.65 for the second.

Compared with B19, B20 is higher in “KD ratio to GLS3000” value: 0.83 for the first, 22.2 for the second.

B21 was tested, and the “KD ratio to GLS3000” value was 3.
